Test results taken from patent US20050050588, “Systemic small RNA signaling system in plants” (published 2005).

How the values were obtained:
[1] = target: T1, CmPSRB1 (recombinant PSRB1) (Cucurbita maxima); experiment: cell_activity; conditions: cell-to-cell movement, binding not directly measured
T1 chain: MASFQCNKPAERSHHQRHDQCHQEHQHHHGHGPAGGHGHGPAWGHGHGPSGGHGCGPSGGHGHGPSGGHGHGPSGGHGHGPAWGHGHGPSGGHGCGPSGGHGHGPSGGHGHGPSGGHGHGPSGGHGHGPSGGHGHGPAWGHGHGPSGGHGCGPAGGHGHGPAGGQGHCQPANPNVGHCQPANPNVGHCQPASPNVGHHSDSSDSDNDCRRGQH

[2] = target: T2, CMV movement protein (CMV-MP) (Cucumber mosaic virus) (UniProt Q83252); experiment: cell_activity
T2 sequence: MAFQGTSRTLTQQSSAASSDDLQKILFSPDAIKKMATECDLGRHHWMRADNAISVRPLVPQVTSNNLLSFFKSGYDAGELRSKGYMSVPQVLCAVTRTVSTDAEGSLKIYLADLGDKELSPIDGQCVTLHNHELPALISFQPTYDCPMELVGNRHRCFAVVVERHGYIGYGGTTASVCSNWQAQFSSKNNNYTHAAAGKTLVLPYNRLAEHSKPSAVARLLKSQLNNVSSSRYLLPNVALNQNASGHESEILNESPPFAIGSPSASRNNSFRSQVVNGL

[3] = target: T3, KNOTTED1 (KN1) (UniProt P24345); experiment: cell_activity
T3 sequence: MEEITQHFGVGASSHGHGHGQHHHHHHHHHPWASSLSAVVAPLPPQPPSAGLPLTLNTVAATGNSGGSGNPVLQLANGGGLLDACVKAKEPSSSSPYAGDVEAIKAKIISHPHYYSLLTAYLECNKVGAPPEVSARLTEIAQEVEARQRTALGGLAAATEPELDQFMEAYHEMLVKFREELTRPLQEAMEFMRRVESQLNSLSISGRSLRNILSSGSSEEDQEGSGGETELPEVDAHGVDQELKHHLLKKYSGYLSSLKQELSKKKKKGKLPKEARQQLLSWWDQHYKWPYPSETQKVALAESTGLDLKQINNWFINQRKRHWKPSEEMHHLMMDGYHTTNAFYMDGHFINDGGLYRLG

[4] = target: T1, CmPSRB1 (recombinant PSRB1); experiment: EMSA; competition gel shift; 20 mM Hepes pH 7.0, 50 mM KCl, 1 mM EDTA, 30 C; conditions: tags: none (native, pET15b, E. coli); 3' 2 nt overhang
Procedure: Electrophoretic mobility-shift assays were carried out as described (S12). Reactions were assembled on ice in 10 μl of binding buffer (20 mM Hepes, pH 7.0, 50 mM KCl, 1 mM EDTA, 1 mM DTT, and 5% [v/v] glycerol). An equal amount of ³²P end-labeled 25 nt ss- or dsRNA was used in assays with various concentrations of purified and desalted R-CmPSRB1. Reaction mixtures were incubated at 30° C. for 20 min and then placed on ice. Reactions were then resolved on a 5% (v/v) nondenaturing polyacrylamide gel that was pre-run for 30 min at 50 V. Electrophoresis was typically carried out at 4° C. and 200 V. The gel was then dried and autoradiographed.

25 nt ssDNA
activity (% injections with movement) ([1]; 0 of 14): 0

25 nt dsRNA (overhang type not stated)
activity (% injections with movement) ([2]; with FITC-dextran, 0 of 13): 0

KN1 RNA (antisense)
activity (% injections with movement) ([3]; CITED includes previous studies (S13), 2 of 10, cited from earlier work): 20

KN1 RNA (sense)
activity (% injections with movement) ([3]; CITED includes previous studies (S13), 20 of 22, cited from earlier work): 91

GGAAAACUACCUGUUCCAUGGCCAA
activity (% injections with movement) ([2]; cell-to-cell movement, 0 of 10): 0

CmRINGP RNA (1 kb)
activity (% injections with movement) ([2]; cell-to-cell movement, 10 of 10): 100
activity (% injections with movement) ([1]; 0 of 8): 0
activity (% injections with movement) ([3]; cell-to-cell movement, 0 of 12): 0

B1: 25 nt dsRNA 3' 2 nt overhang (FK221/FK224) (dsRNA)
RNA 1: GGAAAACUACCUGUUCCAUGGCCAA
RNA 2: GGCCAUGGAACAGGUAGUUUUCCAG
Kd [4]: 30.6 µM
